Kd data for 15 molecules are collected here from patent publication US20220041718A1 (AUTOLUS, published 2022).

Substitutions are numbered along the chain they refer to. In names and notes the source's numbering stands.

First the molecules themselves.
B1: hJovi-1 variant IgG, VH T28K, Y32F, A100N; VL unmutated (antibody, V domains shown)
VH: QVQLVQSGAEVKKPGASVKVSCKASGYKFTGFVMHWVRQAPGQGLEWMGFINPYNDDIQSNERFRGRVTMTRDTSISTAYMELSRLRSDDTAVYYCARGNGYNFDGAYRFFDFWGQGTMVTVSS
VL: DIVMTQSPLSLPVTPGEPASISCRSSQRLVHSNGNTYLHWYLQKPGQSPRLLIYRVSNRFPGVPDRFSGSGSGTDFTLKISRVEAEDVGVYYCSQSTHVPYTFGQGTKLEIK
notes: IgG format; also called anti-TRBC2 triple mutant
B2: hJovi-1 variant IgG, VH N103F, T28K, Y32F, A100N; VL N35F (antibody, V domains shown)
VH: B1 VH with N103F
VL: B1 VL with N35F
notes: IgG format
B3: hJovi-1 variant IgG, VH G31S, T28K, Y32F, A100N; VL unmutated (antibody, V domains shown)
VH: B1 VH with G31S
VL: B1 VL
notes: IgG format
B4: hJovi-1 variant IgG, VH N103L, T28K, Y32F, A100N; VL N35Y (antibody, V domains shown)
VH: B1 VH with N103L
VL: B1 VL with N35Y
notes: IgG format
B5: hJovi-1 variant IgG, VH N103S, T28K, Y32F, A100N; VL N35K (antibody, V domains shown)
VH: B1 VH with N103S
VL: B1 VL with N35K
notes: IgG format
B6: hJovi-1 variant IgG, VH G31R, Y32F, A100N; VL unmutated (antibody, V domains shown)
VH: B1 VH with K28T, G31R
VL: B1 VL
notes: IgG format
B7: hJovi-1 variant IgG, VH N103L, T28K, Y32F, A100N; VL N35M (antibody, V domains shown)
VH: B1 VH with N103L
VL: B1 VL with N35M
notes: IgG format
B8: hJovi-1 variant IgG, VH N103F, T28K, Y32F, A100N; VL N35M (antibody, V domains shown)
VH: B1 VH with N103F
VL: B1 VL with N35M
notes: IgG format
B9: hJovi-1 variant IgG, VH N103E, T28K, Y32F, A100N; VL N35M (antibody, V domains shown)
VH: B1 VH with N103E
VL: B1 VL with N35M
notes: IgG format
B10: hJovi-1 variant IgG, VH N103F, T28K, Y32F, A100N; VL N35Y (antibody, V domains shown)
VH: B1 VH with N103F
VL: B1 VL with N35Y
notes: IgG format
B11: hJovi-1 variant IgG, VH N103L, T28K, Y32F, A100N; VL N35K (antibody, V domains shown)
VH: B1 VH with N103L
VL: B1 VL with N35K
notes: IgG format
B12: hJovi-1 variant IgG, VH N103L, T28K, Y32F, A100N; VL N35R (antibody, V domains shown)
VH: B1 VH with N103L
VL: B1 VL with N35R
notes: IgG format
B13: hJovi-1 variant IgG, VH N103L, T28K, Y32F, A100N; VL N35F (antibody, V domains shown)
VH: B1 VH with N103L
VL: B1 VL with N35F
notes: IgG format
B14: hJovi-1 variant IgG, VH N103S, T28K, Y32F, A100N; VL N35F (antibody, V domains shown)
VH: B1 VH with N103S
VL: B1 VL with N35F
notes: IgG format
B15: hJovi-1 variant IgG, VH N103M, T28K, Y32F, A100N; VL N35F (antibody, V domains shown)
VH: B1 VH with N103M
VL: B1 VL with N35F
notes: IgG format

T2 sequence (A0A5B9 1-129 limits assumed): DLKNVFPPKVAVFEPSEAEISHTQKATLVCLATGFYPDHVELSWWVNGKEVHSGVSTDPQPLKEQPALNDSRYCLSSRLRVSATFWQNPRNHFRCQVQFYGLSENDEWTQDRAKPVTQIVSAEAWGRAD

The target of one assay is T1, Recombinant purified TRBC1 (human, UniProt P01850 1-129, limits assumed).
T1 construct: Construct not described (may be a soluble TCR carrying TRBC1); also called TCR beta constant region 1; soluble recombinant biotinylated TRBC1
T1 sequence (P01850 1-129 limits assumed): as the sequence (A0A5B9 1-129 limits assumed) above, with K3N, N4K, K9E, Y36F counted along it
Description: SPR, IgG captured on anti-human Fc, TRBC1 as analyte. The text has this:
(§1) A series S CM5 sensor chip was immobilised via amine coupling, with an anti-human Fc capture antibody to a density of 9000-10000 RU, using a Biacore T200 instrument. HBS-P+ buffer was used as running buffer in all experimental conditions. The test anti-TRBC2 antibodies (Table 1) were captured on flow cells 2, 3 and 4 to a density of 100-300 RU. Recombinant purified TRBC1 or TRBC2 at known concentrations were used as the ‘analyte’ and injected over the respective flow cells with 150s contact time and 300s dissociation at 30 μl/minute of flow rate. In each experiment, flow cell 1 was unmodified and used for reference subtraction. A ‘0 concentration’ sensorgram of buffer alone was used as a double reference subtraction to factor for drift. Data were fit to a 1:1 Langmuir binding model. Since a capture system was used, a local Rₘₐₓ parameter was used for the data fitting in each case.
As for B1, the equilibrium dissociation constant (Kd) – broadly, the constant that tells how readily two partners part at equilibrium – was 2730 nM.
As to B2, the Kd came to 1610 nM.
B3: the Kd came out at 3680 nM.
The same measure, in the same setting: under B4 stands 1930 nM; under B5, 3680 nM.
On to B6, for which the Kd stood at 3140 nM.
Turning to B7, the Kd stood at 1500 nM.
With B8, the equilibrium dissociation constant (Kd) was 459 nM.
Consider B9, for which the Kd is 5830 nM.
As for B10, the equilibrium dissociation constant (Kd) was determined as 1860 nM.
On to B11, for which the dissociation constant (Kd) was determined as 707 nM.
Consider B12, for which the equilibrium dissociation constant (Kd) came out at 810 nM.
Take B13: the Kd came to 1380 nM.
Same read-out and setting: in the case of B14 it was 6580 nM.
Same read-out and setting: under B15 stands 459 nM.

A further assay addresses T2, Recombinant purified TRBC2 (human, UniProt A0A5B9 1-129, limits assumed).
T2 construct: Construct not described (may be a soluble TCR carrying TRBC2); also called TCR beta constant region 2; soluble recombinant biotinylated TRBC2
Put plainly: SPR, IgG captured on anti-human Fc, TRBC2 as analyte.
From the text: as §1
Background: Surface plasmon resonance follows binding to a sensor surface in real time, without labels.
As for B1, the Kd came to 432 nM.
Regarding B2, the Kd stood at 459 nM.
Same read-out and setting: in the case of B3 it was 1170 nM; in that of B4, 480 nM.
The same measure, in the same setting: in the case of B5 it was 851 nM; in that of B6, 1360 nM.
On the same count and under the same terms, in the case of B7 it was 364 nM; in that of B8, 130 nM.
B9: the Kd worked out at 2130 nM.
Take B10: the Kd is 501 nM.
For B11, the dissociation constant Kd turned out to be 187 nM.
On to B12, for which the Kd turned out to be 201 nM.
Regarding B13, the dissociation constant (Kd) was 369 nM.
Consider B14, for which the Kd was found to be 1560 nM.
As for B15, the Kd was determined as 130 nM.
